{
  "source": "patent US12559863B2",
  "about": "“Macrocyclic modulators of disease associated protein misfolding and aggregation” (RESQ BIOTECH, priority 2017, dated 2026)",
  "key": {"[1]": {"tested_on": "HEK293 cells transiently expressing SOD1(A4V)-GFP", "test": "SOD1 aggregation and viability measurements in HEK293 cells", "format": "cell-based, human", "details": "5 μM SOD1C5-4; compared to untreated cells", "method": "Human embryonic kidney (HEK) 293 cells were transfected using a Nucleofector (Amaxa) following the manufacturer's protocol. 6 ug DNA (SOD1 or SOD1(A4V) cloned into the pEGFP-N3 plasmid vector) were used per 2×10^6 cells and 5 μM synthetic SOD1C5-4 was added, where appropriate, before plating. Transfected cells were sorted 18 h later on a FACSAria to isolate GFP-positive clones. […] Collected cells were plated onto a 24-well plate at a density of 50,000 cells/well. Microscopy analysis was performed under an inverted microscope on day 1 and day 5 in culture after sorting. Cell counts are the average number of viable GFP-fluorescing cells of two areas per triplicate of wells of 24-well plates (magnification 20×). Cell counts are presented as percentage of viability of SOD1-overxoressing cell. As aggregate-positive cells are counted the fluorescing inclusion body-positive cells. Again, two areas per triplicate of wells of 24-well plate are averaged (magnification 20×). Aggregate-positive cells are presented as percentage of the total viable GFP-fluorescing cells."}, "SOD1(A4V) [2]": {"molecular_target": "T1, SOD1(A4V) (Homo sapiens, UniProt P00441, A5V)", "T1 construct": "polyHis; made in house; host or cells: E. coli Origami 2(DE3)", "T1 sequence (P00441 whole entry A5V)": "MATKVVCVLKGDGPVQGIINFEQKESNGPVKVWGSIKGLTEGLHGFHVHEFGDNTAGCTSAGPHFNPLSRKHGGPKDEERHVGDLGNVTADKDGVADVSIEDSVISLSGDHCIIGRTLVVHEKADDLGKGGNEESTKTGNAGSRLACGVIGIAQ", "test": "Differential scanning fluorimetry of SOD1(A4V) with SYPRO Orange", "format": "biochemical", "details": "5:1 peptide to protein ratio", "method": "FIGS. 4A-4F: (A) Chemical structure of the selected cyclic pentapeptide SOD1C5-4. (B) Circular dichroism spectra of SOD1(A4V) incubated with/without the selected cyclic pentapeptides SOD1C5-4, AβC5-34 or AβC5-116 at room temperature for 90 d (1:1 and 5:1 indicate cyclic peptide:SOD1(A4V) molar ratios). Representative spectra from n=2 independent experiments are presented. (C) Dynamic light scattering analysis of SOD1(A4V) incubated with/without the selected cyclic pentapeptides at room temperature for 60 d. Representative data from n=2 independent experiments are presented. (D) Thioflavin T (ThT) fluorescence of SOD1(A4V) incubated with/without the selected cyclic pentapeptides at room temperature for 90 d. Representative data from n=2 independent experiments are presented. (E) Filter retardation assay of SOD1(A4V) incubated with/without the selected cyclic pentapeptides at 37° C. for 25 d. Representative images from n=2 independent experiments performed in replica duplicates are presented. (F) Differential scanning fluorimetry analysis of isolated SOD1(A4V) in the presence or absence of the selected cyclic pentapeptide SOD1C5-4 (5:1 peptide to protein ratio) using the conformation-sensitive dye SYPRO Orange. Data corresponding to n=2 independent experiments each one performed in three replicates±s.e.m. are presented."}, "SOD1(A4V) [3]": {"molecular_target": "T1, SOD1(A4V)", "test": "Dynamic light scattering of SOD1(A4V) with cyclic peptide", "format": "biochemical", "details": "room temperature, 60 d", "method": "(§1) SOD1 or mutants thereof were overexpressed from the appropriate pET-SOD1 or PASK-SOD1 vectors in E. coli Origami 2(DE3) cells in LB medium containing 50 μg/mL kanamycin (for pET-SOD1) or 100 μg/mL ampicillin (for pASK-SOD1), 200 μM CuCl2, and 200 μM ZnCl2 by the addition of 0.01 mM IPTG (for pET-SOD1) or 0.2 μg/mL anhydrotetracycline (aTc) (for pASK-SOD1), either at 37° C. for 2-3 h or at 18° C. for about 16 h. Origami 2(DE3) cells were utilized in order to provide an oxidizing cytoplasmic environment in order to promote correct formation of disulfide bonds, which are required for proper SOD1 folding and function. Under these conditions, bacterially produced SOD1 is produced in dimeric and enzymatically active form, while it simultaneously co-exists with misfolded, soluble and insoluble SOD1 oligomeric/aggregated species (FIG. 3C). Thus, the acquired protein is found in a state that resembles the conditions encountered in human cells under stressful or pathogenic conditions. The appearance of misfolded SOD1 oligomers/aggregates is enhanced with increasing incubation temperatures. […]\nThe sizes of the SOD1 particles were measured using a Zetasizer NanoZS90 (Malvern) instrument. […]"}, "SOD1(A4V) [4]": {"molecular_target": "T1, SOD1(A4V)", "test": "Circular dichroism of isolated SOD1(A4V) with cyclic peptide", "format": "biochemical", "details": "40 μM SOD1(A4V), 25° C., 90 d", "method": "as §1, with “3C).” for “3C). Thus, the acquired protein is found in a state that resembles the conditions encountered in human cells under stressful or pathogenic conditions. The appearance of misfolded SOD1 oligomers/aggregates is enhanced with increasing incubation temperatures.”\nAppropriate amounts of synthetic cyclic peptides were added to either 40 μM SOD1(A4V) or 50 μM Aβ solutions at the desired cyclic peptide:target protein molar ratio. SOD1(A4V) structural changes were monitored for 90 d at 25° C., under quiescent conditions. Aβ structural changes were monitored for 30 d at 33° C. under quiescent conditions. CD spectra in the range 190-260 nm were recorded on a JASCO J-715 spectropolarimeter (Jasco Co., Japan) using quartz cuvettes with 1 mm path length. […]"}, "SOD1(A4V) [5]": {"molecular_target": "T1, SOD1(A4V)", "test": "Filter retardation assay of SOD1(A4V)", "format": "biochemical", "details": "25 d at 37° C.", "method": "as §1"}, "Aβ42": {"molecular_target": "T2, Aβ42 (Homo sapiens, UniProt P05067)", "T2 construct": "one of the secondary products yields a 42-amino-acid-long peptide (Aβ42); purchased Eurogentec, Belgium; host or cells: chemical synthesis", "test": "Circular dichroism of Aβ42 with cyclic peptide", "format": "biochemical", "details": "50 μM Aβ, 33° C., 30 d", "method": "Synthetic Aβ40 and Aβ42 peptides were gently dissolved without vortexing in doubly deionized water to a final concentration of 100 μM. These solutions were then diluted by PBS addition (10 mM, pH 7.33) to achieve a final Aβ concentration of 50 μM.\nAppropriate amounts of synthetic cyclic peptides were added to either 40 μM SOD1(A4V) or 50 μM Aβ solutions at the desired cyclic peptide:target protein molar ratio. SOD1(A4V) structural changes were monitored for 90 d at 25° C., under quiescent conditions. Aβ structural changes were monitored for 30 d at 33° C. under quiescent conditions. CD spectra in the range 190-260 nm were recorded on a JASCO J-715 spectropolarimeter (Jasco Co., Japan) using quartz cuvettes with 1 mm path length. Each reported spectrum is the average of three scans at a rate of 100 nm·min^−1 and a resolution of 0.5 nm."}},
  "data": [
    {"substance": "cyclo-TWSVW (cyclic) [SOD1C5-4]", "values": [
      {"measurement": "fluorescence of HEK293 cells expressing SOD1(A4V)-GFP", "setting": "[1]", "result": "higher fluorescence"},
      {"measurement": "inclusions comprising aggregated SOD1(A4V)-GFP", "setting": "[1]", "result": "fewer inclusions comprising aggregated SOD1(A4V)-GFP"},
      {"measurement": "viability of HEK293 cells expressing SOD1(A4V)-GFP", "setting": "[1]", "result": "higher viability"},
      {"measurement": "propensity of SOD1(A4V) to expose hydrophobic surfaces (SYPRO Orange, heat-induced denaturation)", "setting": "SOD1(A4V) [2]", "result": "decrease the propensity of SOD1(A4V) to expose hydrophobic surfaces"},
      {"measurement": "size of oligomeric/aggregated SOD1(A4V) species (DLS)", "setting": "SOD1(A4V) [3]", "result": "markedly smaller sizes"},
      {"measurement": "time-dependent conformational transition indicative of SOD1(A4V) aggregation", "setting": "SOD1(A4V) [4]", "result": "significantly delayed"},
      {"measurement": "interaction with SOD1(A4V) by CD spectroscopy", "setting": "SOD1(A4V) [4]; 1:1 and 5:1 peptide:SOD1(A4V)", "result": "interacts with SOD1(A4V)"},
      {"measurement": "formation of large, amyloid-like SOD1(A4V) aggregates by filter retardation assay", "setting": "SOD1(A4V) [5]", "result": "dramatically decreased"},
      {"measurement": "effect on aggregation process of Aβ42 (CD)", "setting": "Aβ42", "result": "did not have any effect"}
    ]}
  ]
}
